Assay results reported in paper doi:10.1101/2022.04.27.489752.

Experiments:
[1] = molecular target: CapH C-terminal domain (residues 67-107) with Ile99 to Met mutation, crystallised (E. coli MS115-1); test: crystal structure
[2] = molecular target: CapH C-terminal domain (residues 67-107), crystallised (E. coli MS115-1); test: crystal structure
[3] = molecular target: MBP-fused CapH (I99M) mutant (E. coli MS115-1); test: SEC-MALS

In the case of “CapH C-terminal domain (residues 67-107) with Ile99 to Met mutation, crystallised (domain or fragment)”, the stoichiometry N [1] is reported as 2.
In the case of “CapH C-terminal domain (residues 67-107), crystallised (domain or fragment)”, the stoichiometry N [2] is reported as 4.
“MBP-fused CapH (I99M) mutant (natural protein)” showed a stoichiometry N [3] of 2.
